Assay results published in patent US20040170622A1, “Methods and compositions for modulating XBP-1 activity” (President and Fellows of Harvard College, priority 2002, published 2004).
Where a SMILES comes first, the peptide text is derived from it. The star is where a group is joined. Cbz = O=C(OCc1ccccc1)*

B1: dn-XBP: dominant negative XBP-1 containing the N-terminal 188 aa, lacking transactivation domain, retaining leucine zipper (protein)
chain: MVVVAAAPSAATAAPKVLLLSGQPASGGRALPLMVPGPRAAGSEASGTPQARKRQRLTHLSPEEKALRRKLKNRVAAQTARDRKKARMSELEQQVVDLEEENHKLQLENQLLREKTHGLVVENQELRTRLGMDTLDPDEVPEVEAKGSGVRLVAGSAESAAGAGPVVTSPEHLPMDSDTVASSDSESD

Legend:
Assay type in all cases: cell-based
XBP-1 protein = XBP-1 protein species in MOPC315 and MM.1S myeloma cells treated with proteasome inhibitors (Western blot); details: mouse myeloma MOPC315 and human myeloma MM.1S
Description: A variety of reversible and irreversible inhibitors that inhibit degradation of proteins by the ubiquitin-proteasome pathway have recently been identified. Proteasome inhibitors MG132 and PS341 block the rapid degradation of ubiquitinated proteins such as unspliced, but not spliced XBP-1. Myeloma cells express primarily spliced XBP-1 protein as expected. […] In this experiment lysates from MOPC315 cells were untreated or treated for 6 hours with 5 ug/ml of tunicamycin or 20 uM of MG-132 and were analyzed for the presence of XBP-1 using XBP-1 antibody. The two forms of XBP-1 were distinguished by their molecular weight.
In the presence of proteasome inhibitors, unspliced XBP-1 protein accumulates in the cell and is present at higher levels than the spliced protein. Lysates from Mm. 1S cells were untreated or treated for 1, 4, or 8 hours with 20 uM of PS-341 and were analyzed by western blotting with anti-XBP-1 antibody. Because unspliced, but not spliced XBP-1 is stabilized, the ratio of unspliced to spliced XBP-1 increases in cells treated with proteasome inhibitors.

XBP-1 = XBP-1 dependent gene expression in dn-XBP / iXBP transduced J558 cells (Northern, Western blot)
Text: (A) Synergistic effect of Tm and MG-132 on apoptosis. Annexin V positive cells were counted after treating J558 cells for 18 hrs with suboptimal concentrations of Tm and MG-132 as indicated. (B) J558-iXBP cells were generated by retroviral transduction of J558 cells with the U6 promoter based XBP-1 RNAi vector. (C) XBP-1 dependent gene expression in J558 cells that express control GFP, dn-XBP or iXBP-1 treated with Tm. Generation of dn-XBP-1 J558 cells by infection with a retrovirus containing dn-XBP cDNA inserted into the GFP-RV vector (N. N. lwakoshi et al., Nature Immunology 4, 321-329 (2003)). ERdj4, p58^IPK, BiP and CHOP gene expression were examined by Northern blot analysis. (D) Increased apoptosis in iXBP-1 and dn-XBP-1 expressing J558 cells. Cells were treated with the indicated amounts of Tm for 48 hrs and dead cells counted after Annexin V staining.
Total RNA was prepared by using Trizol reagent, electrophoresed on 1.2% agarose, 6% formaldehyde gels and then transferred onto Genescreen Plus membrane, (NEN, Boston, Mass.). […] Probes for ERdj4 and p58^IPK were generated from cDNA excised from EST clones (ATCC, Manassas, Va.) using appropriate restriction enzymes (ERdj4, IMAGE: 1920927; p58^IPK, IMAGE:2646147). […]

UPR target genes = assay: UPR target gene induction by Tm in MEF-dn-XBP cells (Northern blot); details: 10 μg/ml Tm
Description: (A) The 5×ATF6GL3 reporter plasmid was cotransfected with either pCGNATF6α or XBP-u/s plasmids into MEF cells with or without the dominant negative XBP-1 expression plasmid. 100 ng DNA was used for each transfection except for pCDNA3.1, which was added to give 1 μg of DNA in total. Luciferase assays were performed as described in the legend to FIG. 18.(B) MEF and MEF-dn-XBP cells that stably express dominant negative XBP-1 protein were treated with 10 μg/ml Tm for the indicated time periods. Total RNAs were isolated and subjected to Northern blot analysis. The same blot was hybridized sequentially with BiP, CHOP, ERdj4, p58^ipk and ATF6α probes. Ethidium bromide staining of the gel before blotting is shown at the bottom as loading control.
293T and MEF cells derived from wild type and XBP-1^−/− embryos were cultured in DMEM supplemented with 10% fetal calf serum (Hyclone Laboratories). MEF-tet-off cells (Clontech) were maintained in the same media with the addition of 100 μg/ml G418 and 1 μg/ml doxycycline. XBP-1s inducible cells were obtained by transfecting MEF-tet-off cells with the TREhyg-XBP-1s plasmid and then selecting in the presence of 400 μg/ml hygromycin B. Several clones were tested for doxycycline-dependent XBP-1s expression, and one was selected for further experiments. MEF-dn-XBP cells were generated by transfecting MEF-tet-off cells with the TREhyg-dn-XBP plasmid. […]

Molecule	amount of unspliced XBP-1 protein (XBP-1 protein)	levels of active spliced XBP-1 protein (XBP-1 protein)	induction of BiP and CHOP by Tm (XBP-1)	induction of ERdj4 and p58IPK by Tm (XBP-1)	induction of CHOP by Tm (UPR target genes)	induction of ERdj4 and p58ipk by Tm (UPR target genes)
CC(C)C[C@@H](C=O)NC(=O)[C@H](CC(C)C)NC(=O)[C@H](CC(C)C)NC(=O)OCc1ccccc1 [MG-132] (Cbz-Leu-Leu-Leu-aldehyde)	dramatic increase in the amount of unspliced XBP-1 protein	concomitant decrease in levels of the active spliced XBP-1 protein	–	–	–	–
B1	–	–	minimally affected	greatly reduced induction of XBP-1-dependent UPR target genes, ERdj4 and p58^IPK	suppressed the induction of CHOP	significantly suppressed the induction of XBP-1 target genes, ERdj4 and p58^ipk
